# Assay: soluble on expression in E. coli; label from the status in PepcDB or PDB records
row,Sequence,soluble on expression in E. coli
1,MGSDKIHHHHHHMNTPAPRKRREMKIKTATVTGVRQISPDLIRFSFDCPEIVGADLGFTDHYIKILFVPAGADYSWPFDMAEIAETQPRELQPVRRTYTFRTVDTVAGTFDIDFVAHGTDGLAGPWAQQAQVGDVIAFGGPGGAWKPETTYEHYVLAGDEAAAPAIFAALEHLPAGTTAKAFIEISSNEARFNAPASDNIEVVWVPRDGATHGTLLIDALRQDGYPTKKTSWFIHGVAEMVKETRKFLFVEGNVDKADASISGYWRLGMTEDQWQASKREFNEQNEAEELALSKA,not soluble
2,MLTIGLYNTYDTKKLHEAHIRAIARAAPVAYAYEFHLALIGFPFDSDDPKEVAERVASTTTIGEGGKYLLELAKSNKFHLLDFPKRGFPPQFGEVIATTSKPSKEKVIGSREVAEMALRGKSLMLIIGLGRHGLPKEVFEISKYHLDITDGREISLETCTAIGIIPARIKTLMEALKWK,not soluble
3,MGSDKIHHHHHHMVKIKGLNGNLVFIFGPGSFDEYLSFLEEKLTANKQLFSGSRVIFKGEELKKLSHSQIASLQELCLRHGVIMNNNAVTVNKGSSKDLVIYRNLRSGQKLRSEGSVIIWGDVHESAEILAAGDIIVLGKLDGIAHAGCYGDMNRLIFALSLSPGQIRIGDRLSRSPEDPDKSPHPEIAFWDGENICIKAYSSRSGLRG,not soluble
4,MVHIKKGELTQEEKELLEVIGKGTVQEAGTLLSSKNVRVNCLDENGMTPLMHAAYKGKLDMCKLLLRHGADVNCHQHEHGYTALMFAALSGNKDITWVMLEAGAETDVVNSVGRTAAQMAAFVGQHDCVTIINNFFPRERLDYYTKPQGLDKEPKLPPKLAGPLHKIITTTNLHPVKIVMLVNENPLLTEEAALNKCYRVMDLICEKCMKQRDMNEVLAMKMHYISCIFQKCINFLKDGENKLDTLIKSLLKGRASDGFPVYQEKIIRESIRKFPYCEATLLQQLVRSIAPVEIGSDPTAFSVLTQAITGQVGFVDVEFCTTCGEKGASKRCSVCKMVIYCDQTCQKTHWFTHKKICKNLKDIYEKQQLEAAKEKRQEENHGKLDVNSNCVNEEQPEAEVGISQKDSNPEDSGEGKKESLESEAELEGLQDAPAGPQVSEE,soluble
5,MSLGAMPTVRDLRLIPFRIPLKAPLRWGKSSELAALEHALLEVELSDGSIGRAEVAIRPTIYGETLGSVRAGLEYLRPRLLGLEADDQEGIRAVLEAFPFNFGLKGALDTALWEAWARSEGEELYQVLKPAKHRVRVAYILGLGEEDEVLEDARMAFGAGVRVFKVKVGRDLEADTRRILRLKEAFPEAELYADANESLPPKEAERYLLAWKELGLRYVEEPLPVEEVEARRALREKGILSLIADDAAMTPKDLKRELALNTFDVLNLKPARTGVTWTLEMLALARERGKKAMVGSQAQSAFGAYQSALLAFQQGVTEPCELAFHLKAEGGFFPFPPFREGWLYWEDLVEARFDEEAFARYALKEAEGHHHHHH,soluble
6,MQKRHTNRERYFEEQAQTTRNYYIPYIKEYTGNLPNKVLEVGCGEGGNLLPFAELGCDVIGIDIAASRIEQAQNFFITKRQKGTFIASDIFLLKDLQKHFPLILIHDVIEHIDNKEQFLRNLKKYLSPNGMIFIAFPAWQMPFGGHQQIARSKIISHMPFIHLLPRMLYKRILELFSEQESTVKELLTIKYTRCTIEMFRRVVKQTDYQIVNEQLYFINPHYKIKFGLTPHKLNKTIACIPFIRNVFSTSCFYLIRPT,not soluble
7,MSLTKFVSAPLICGLALLGALSAAHAQTGIPALPPIAQPLPVPAPAPVTPPAPTVPVPQEPAPVPQPPMPQPSVPQTPAPQKPVTPRPAPAPSRAPLLIQARANVPALVAGKKTTVPVLKTLTIPAERAAQLRQRGEVSASLQADLDTFLKSLAAPRDARFEQQDDGQWAVVQPNGLKVDAQATRAAVAKVLRDPRGVSANVVVTGQVAPQRTLDFFASRGITTFLATGFTSYYGSSPERVKNIHVGAQNFKDRLFEGDVFSFNKFIGPVSERNGYVPGLVIAGDQTASGVGGGICQVSTTVFRTLYGAGLGIVQRQNHSYQVFYYDPQGLDATIYQPQLDLKFANTTGGPIWFQTEWDDQEATLTITAFGQARDYQVQVDAPKTLKTVAPPKDRLIPDASLPAGQRKQVDWAAPGATIEVTRRFTRGGKTFKQDTLRSVYRPWPNIFRVGTKKEGGSHHHHHH,soluble
8,MDNSGKEAEAMALLAEAERKVKNSQSFFSGLFGGSSKIEEACEIYARAANMFKMAKNWSAAGNAFCQAAQLHLQLQSKHDAATCFVDAGNAFKKADPQEAINCLMRAIEIYTDMGRFTIAAKHHISIAEIYETELVDIEKAIAHYEQSADYYKGEESNSSANKCLLKVAGYAALLEQYQKAIDIYEQVGTNAMDSPLLKYSAKDYFFKAALCHFCIDMLNAKLAVQKYEELFPAFSDSRECKLMKKLLEAHEEQNVDSYTESVKEYDSISRLDQWLTTMLLRIKKTIQGDEEDLR,soluble
9,MGSDKIHHHHHHVTLRQRIQAMSDCNRDPVSQITDLSGALVTIVPSLLACVGMVFASNLTDVTAEALLYDYREAANPLGQRLIARVPYQDWGAELHQTPETAIIPLDLSEALGCEGPATSPSLLANFVHILPNQAIETTAIATSQIFYVLRGQGVTRVADQEIAWTEGCCLALPADAIATHYAQTDSAFYWVHDAPLLRYLGVKPDRARFQPTLYRRQDLEATLAAIAADPQSRKANRLSVLLANQNFPQTRTITHTIWAMFGLLPPDVVQAPHRHQSVALDLILDCQPGCYTLVGTQLDERGQIRNPVRVDWRPYSVFVTPPGYWHAHYNESGQEAHLLPIQDAGLHTYLRTLDILFARHNGQISDEAA,not soluble
10,MGEQSHEKDHDEAHSYNPFVRSAVEYDADTRLQMAENAASARKLFVSSALKDIIVNPENFYHDFQQSAQMAEDANQRRQVSYNTKREAHIHQLKAQGLPLPSNIPMIEINPTRVTLNMEFESQYYSLMTSDNGDHENVASIMAETNTLIQLPDRSVGGTTPDPFAQQVTITGYFGDVDRARMLMRRNCHFTVFMALSKMKMPLHELQAHVRQNPIQNVEMSFVDAPEKNGIVTTYLRITAREKNQHELIEAAKRLNEILFRESPAPENNFTLHFTLSTYYVDQVLGSSSTAQLMPVIERETTTIISYPCYNNRNETRGNIYEIKVVGNIDNVLKARRYIMDLLPISMCFNIKNTDMAEPSRVSDRNIHMIIDESGIILKMTPSVYEPADLLSGEVPLNCASLRSKEFNIKKLYTAYQKVLSKKFDFIAPQPNDYDNSIWHHSLPANFLKNFNMPCRGELSDGSNGRRHRSSSIASSRSKHSYMSKGKQFSESSGGPSRSHTRVSSFSENSSTVPIMQFPTPHFAPPMLTPHHHMLKYVYLQQHQQAQTFLKGAAGLHPGTHIMFPPPIIVDGSFVSALPFADPVVFDGFPYVHGLFPVNEAEQHRNHRESSPSLRSTQEIRKPSRNMGNRPSSSTGSYYPSTTPRQRVYEQVREDDLRSHIGSRRTSVNGDDQNVESMHDQGYERQYPRQHQRLQKDDQQRWKTGSRGDIHSSRTINVHRDVRNSNEYDFHVGNSGPAKRSPSLEQVQLQMTHHLKLKSNDVDLDHEKLYMHESPHNDSDTTVSASGFGNDLMDGDFVQRFLSNANINESGRRPRTVSCFTEKDGQSARYIDSDGAYSVVDHASTHQSRSYDSFRKVGDNGVTKTILEPRARVEKDYGKISLEHKTKYSNEYGDEEKSAENDTSSLGSRQYRIDPMKRNIYILRNRDFSNSFFYFLHQFSLYMNPICAYRIRLHQFLSYKPSICLSRISLYPRDLYD,not soluble
11,MGSDKIHHHHHHMPQTEAPDRILLIKLRHHGDILLTTPVARTLKSRFPQCEIDMLVYRETVPLLQHNPDIARVWTLDRSLRGWRKLVSQLRLLLALRRRRYQTVIHLSDQMQGAFFAKLLARRHAIGFDYPKRRKSPWHRFFTALAPLAPSDTLHTVSQNLLALSPLGITPTADEQRCVLPIQASDREAVAALLREAGVSGPYIVIHPSSRWFFKCWEDDRFAGLAEALASDGWSIVLTAAPDPAEMDMVAAIQGKIRSDRVVSVAGRLTLNQLAAIIDGARMFIGVDSVPMHMAAALGKDTVALFGPSKIHEWHPWMTRHRLLNAADYGELIDPDQVDTSTRQRYLKNIPLEAALRASRELLSSPAQE,not soluble
12,GPHMASMLEAKFEEASLFKRIIDGFKDCVQLVNFQCKEDGIIAQAVDDSRVLLVSLEIGVEAFQEYRCDHPVTLGMDLTSLSKILRCGNNTDTLTLIADNTPDSIILLFEDTKKDRIAEYSLKLMDIDADFLKIEELQYDSTLSLPSSEFSKIVRDLSQLSDSINIMITKETIKFVADGDIGSGSVIIKPFVDMEHPETSIKLEMDQPVDLTFGAKYLLDIIKGSSLSDRVGIRLSSEAPALFQFDLKSGFLQFFLAPKFNDEGSNSQSNGSGALEAKFEEASLFKRIIDGFKDCVQLVNFQCKEDGIIAQAVDDSRVLLVSLEIGVEAFQEYRCDHPVTLGMDLTSLSKILRCGNNTDTLTLIADNTPDSIILLFEDTKKDRIAEYSLKLMDIDADFLKIEELQYDSTLSLPSSEFSKIVRDLSQLSDSINIMITKETIKFVADGDIGSGSVIIKPFVDMEHPETSIKLEMDQPVDLTFGAKYLLDIIKGSSLSDRVGIRLSSEAPALFQFDLKSGFLQFFLAPKFNDEGSNSQASNSGALEAKFEEASLFKRIIDGFKDCVQLVNFQCKEDGIIAQAVDDSRVLLVSLEIGVEAFQEYRCDHPVTLGMDLTSLSKILRCGNNTDTLTLIADNTPDSIILLFEDTKKDRIAEYSLKLMDIDADFLKIEELQYDSTLSLPSSEFSKIVRDLSQLSDSINIMITKETIKFVADGDIGSGSVIIKPFVDMEHPETSIKLEMDQPVDLTFGAKYLLDIIKGSSLSDRVGIRLSSEAPALFQFDLKSGFLQFFLAPKFNDEE,soluble
13,MARIFTYPLARKRIRMHKPDDKQYDATYFTRWYRDAGLADPARLRRKVALAVAQAEYYLERPIRTVLDVGCGEAAWRAPLLALRPKLQYLGFDSSEYAVQRYGRSRQIHPARFGDFAWLRPCAPVDLLICSDVLHYVPTREFNQGLPGLAEMCAGVAFLETFAEEDAFEGDHEGFQARPARWYRRRFASVGFTALGSHCWLSPQLRGETAALEHS,soluble
14,MSDVAEEKAEFLVIRTYGSESFRKECADLIEKELHKLNATIARVPVGEFVAYAENAVKNETDSEAVGSSSVKRENSANDSPANTNDVDIVSSPVKRGRGRKAKNPSADADVNDTGSSPVKKGRGRPIKNPSADAGSPLVKKGRGRRAQTPAADTDAIDTASSPVKKGRGRPAKNPSADAGSPLVKKGRGRQAKNLAADTDAIDTASSPVKKGRGRPLKKTAAEADVNGLGSPSANRITGCPPSTKVSNQSSPPEPAVNESEEADEPVLKRGRSVKQPKDESESDDEDAEKAPAAIPKKRGRPGKSAIDAFFDGSD,soluble
15,MPITNASPENILRYLHAAGTGTKEAMKSATSPRGILEWFVNFFTCGGVRRSNERWFREVIGKLTTSLLYVNKNAFFDGNKIFLEDVNGCTICLSCGAASENTDPMVIIEVNKNGKTVTDKVDSERFWNVCRMLKLMSKHNIQQPDSLITEDGFLNLRGVNLAHKDFQGEDLSKIDASNADFRETTLSNVNLVGANLCCANLHAVNLMGSNMTKANLTHADLTCANMSGVNLTAAILFGSDLTDTKLNGAKLDKIALTLAKALTGADLTGSQHTPTPLPDYNDRTLFPHPIF,not soluble
16,MKAIPSNVWATRPTKPFTCFFCPMIVLTEDGSPTILSPHYGEYYHSIHGACRESEHVFVHTGLLHRLESFDPSGTLYLFEVGFGTALNALLTLREQRCRGLSIHYSAIEKFPLERDVYEHLRFSVGMADEDKLLQSLHHAPWGMDCEICPGFTLHKIASDLTDFTFRKPIDLIYFDAFSPEAQPELWSEEIFIRMVAACRSGAVLATYCAKGEIRRRLTRAGFHMERLPGPPGKREILRGTYYLEDRGDSL,not soluble

# Source: the DeepSol protein solubility set
